Numbering of substitutions follows the chain as printed. Numbers in names are those of the source.
B1: H4-T57N (antibody, human IgG4 S228P, kappa, V domains shown)
VH: QVQLVQSGGGLVQPGGSLRLSCAASGFTFSSYAMSWVRQAPGKGLEWVSNIYSNPNRNYYADSVEGRFTISRDNSKNTLYLQMNSLRAEDTAVYYCAKAPGDYTAYFDYWGQGTLVTVSS
VL: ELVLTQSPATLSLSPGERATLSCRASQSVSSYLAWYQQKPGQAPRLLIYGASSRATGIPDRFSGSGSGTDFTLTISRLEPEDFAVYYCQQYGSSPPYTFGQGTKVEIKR
notes: H4 variant without the CDR-H2 glycosylation site; also called H4-T57N-CDR2
B2: H4-T57G (antibody, human IgG4 S228P, kappa, V domains shown)
VH: B1 VH with N58G
VL: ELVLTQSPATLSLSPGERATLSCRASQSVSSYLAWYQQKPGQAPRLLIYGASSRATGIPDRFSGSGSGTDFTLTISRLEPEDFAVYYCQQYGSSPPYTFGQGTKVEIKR
notes: H4 variant without the CDR-H2 glycosylation site; also called H4-T57G-CDR2
B3: H4-T57A (antibody, human IgG4 S228P, kappa, V domains shown)
VH: B1 VH with N58A
VL: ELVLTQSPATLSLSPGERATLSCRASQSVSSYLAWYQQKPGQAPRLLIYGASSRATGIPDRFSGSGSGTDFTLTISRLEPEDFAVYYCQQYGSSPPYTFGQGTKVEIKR
notes: H4 variant without the CDR-H2 glycosylation site; also called T57A antibody; T57A variant
B4: H4 (antibody, human IgG4 S228P, kappa, V domains shown)
VH: B1 VH with N58T
VL: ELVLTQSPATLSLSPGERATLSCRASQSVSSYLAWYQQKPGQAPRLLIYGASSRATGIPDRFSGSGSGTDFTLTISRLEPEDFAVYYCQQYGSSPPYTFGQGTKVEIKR
modifications: N-linked glycosylation site (NXS/T; NRT) in CDR-H2 found to be glycosylated in the final antibody (FIG. 1)
notes: also called H4-CDR2; H4 antibody
B5: H4-N55G (antibody, human IgG4 S228P, kappa, V domains shown)
VH: B1 VH with N56G, N58T
VL: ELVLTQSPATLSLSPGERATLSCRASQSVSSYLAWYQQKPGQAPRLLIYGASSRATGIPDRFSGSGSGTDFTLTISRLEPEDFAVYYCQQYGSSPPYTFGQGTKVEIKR
notes: H4 variant without the CDR-H2 glycosylation site; also called H4-N55G-CDR2
B6: H4-N55S (antibody, human IgG4 S228P, kappa, V domains shown)
VH: B1 VH with N56S, N58T
VL: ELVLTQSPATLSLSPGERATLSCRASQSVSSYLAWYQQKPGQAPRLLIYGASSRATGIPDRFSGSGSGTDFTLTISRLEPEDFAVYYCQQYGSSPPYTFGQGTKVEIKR
notes: H4 variant without the CDR-H2 glycosylation site; also called H4-N55S-CDR2
B7: H4-T57E (antibody, human IgG4 S228P, kappa, V domains shown)
VH: B1 VH with N58E
VL: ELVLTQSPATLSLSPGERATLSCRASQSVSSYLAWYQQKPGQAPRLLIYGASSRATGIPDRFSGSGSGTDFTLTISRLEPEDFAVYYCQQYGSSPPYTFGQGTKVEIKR
notes: H4 variant without the CDR-H2 glycosylation site; also called H4-T57E-CDR2
B8: H4-N55Q (antibody, human IgG4 S228P, kappa, V domains shown)
VH: B1 VH with N56Q, N58T
VL: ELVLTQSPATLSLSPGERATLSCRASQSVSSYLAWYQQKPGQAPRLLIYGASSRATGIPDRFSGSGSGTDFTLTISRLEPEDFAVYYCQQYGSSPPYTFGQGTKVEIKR
notes: H4 variant without the CDR-H2 glycosylation site; also called H4-N55Q-CDR2
B9: H4-N55D (antibody, human IgG4 S228P, kappa, V domains shown)
VH: B1 VH with N56D, N58T
VL: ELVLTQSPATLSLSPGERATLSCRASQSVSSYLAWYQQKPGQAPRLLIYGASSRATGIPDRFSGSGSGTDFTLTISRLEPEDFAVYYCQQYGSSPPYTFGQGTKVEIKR
notes: H4 variant without the CDR-H2 glycosylation site; also called H4-N55D-CDR2
B10: H4-N55E (antibody, human IgG4 S228P, kappa, V domains shown)
VH: B1 VH with N56E, N58T
VL: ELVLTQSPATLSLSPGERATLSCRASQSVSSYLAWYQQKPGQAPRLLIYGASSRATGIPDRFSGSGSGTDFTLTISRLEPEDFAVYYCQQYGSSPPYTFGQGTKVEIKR
notes: H4 variant without the CDR-H2 glycosylation site; also called H4-N55E-CDR2
B11: L18-H5 (antibody, human IgG4 S228P, kappa, V domains shown)
VH: B1 VH with Y52N, S53G, N54P, P55G, R57G, N58T
VL: ELVLTQSPATLSLSPGERATLSCRASQSVSSYLAWYQQKPGQAPRLLIYGASSRATGIPDRFSGSGSGTDFTLTISRLEPEDFAVYYCQQYGSYPPLTFGQGTKVEIKR
notes: combination of the L18 light chain and the H5 heavy chain; also called L18 (CDR3)-H5 (CDR2)
B12: Par-K64E (antibody, human IgG4 S228P, kappa, V domains shown)
VH: B1 VH with N50A, Y52S, S53G, N54S, P55G, N56G, R57S, N58T
VL: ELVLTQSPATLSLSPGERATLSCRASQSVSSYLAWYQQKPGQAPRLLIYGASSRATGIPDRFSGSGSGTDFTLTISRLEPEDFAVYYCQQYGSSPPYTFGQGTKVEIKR
notes: also called Parental-K64E-VH-CDR2; Par-K64E antibody
B13: H5 (antibody, human IgG4 S228P, kappa, V domains shown)
VH: B1 VH with Y52N, S53G, N54P, P55G, R57G, N58T
VL: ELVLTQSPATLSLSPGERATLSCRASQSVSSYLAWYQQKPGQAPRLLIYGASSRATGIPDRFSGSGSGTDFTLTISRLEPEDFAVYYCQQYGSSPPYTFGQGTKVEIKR
notes: also called H5-CDR2
B14: H6 (antibody, human IgG4 S228P, kappa, V domains shown)
VH: B1 VH with N50G, Y52N, S53G, P55G, N56D, R57Y, N58T, E65K
VL: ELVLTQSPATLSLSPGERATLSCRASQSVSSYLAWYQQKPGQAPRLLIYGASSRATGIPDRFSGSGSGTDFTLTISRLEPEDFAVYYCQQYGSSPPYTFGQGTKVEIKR
notes: also called H6-CDR2
B15: L18 (antibody, human IgG4 S228P, kappa, V domains shown)
VH: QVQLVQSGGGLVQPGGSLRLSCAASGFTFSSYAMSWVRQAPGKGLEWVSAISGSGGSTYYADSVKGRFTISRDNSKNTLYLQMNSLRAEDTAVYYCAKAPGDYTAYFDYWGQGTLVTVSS
VL: B11 VL
notes: also called L18 (CDR3)
B16: L18-H4 (antibody, human IgG4 S228P, kappa, V domains shown)
VH: B1 VH with N58T
VL: B11 VL
notes: combination of the L18 light chain and the H4 heavy chain; also called L18 (CDR3)-H4 (CDR2)
B17: H8 (antibody, human IgG4 S228P, kappa, V domains shown)
VH: B1 VH with N50A, Y52G, S53G, N54S, P55G, N56S, R57G, N58T, E65K
VL: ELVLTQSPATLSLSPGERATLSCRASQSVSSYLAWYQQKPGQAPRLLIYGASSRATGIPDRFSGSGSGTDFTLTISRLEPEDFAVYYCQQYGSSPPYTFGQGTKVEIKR
notes: also called H8-CDR2
B18: H4-E64K (antibody, human IgG4 S228P, kappa, V domains shown)
VH: B1 VH with N58T, E65K
VL: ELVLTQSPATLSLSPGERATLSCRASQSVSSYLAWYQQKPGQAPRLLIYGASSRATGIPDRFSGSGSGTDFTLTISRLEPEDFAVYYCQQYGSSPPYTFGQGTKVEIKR
notes: also called H4-E64K-CDR2
B19: human recombinant HVEM (hHVEM) (receptor, UniProt Q92956 39-202, looked up)
chain: LPSCKEDEYPVGSECCPKCSPGYRVKEACGELTGTVCEPCPPGTYIAHLNGLSKCLQCQMCDPAMGLRASRNCSRTENAVCGCSPGHFCIVQDGDHCAACRAYATSSPGQRVQKGGTESQDTLCQNCPPGTFSPNGTLEECQHQTKCSWLVTKAGAGTSSSHWV
notes: Recombinant protein coated at 2.5 ug/ml; also called recombinant hHVEM; hHVEM coated plates

Target: T1, HVEM on HVEM-positive melanoma cells (UniProt Q92956 39-283, limits assumed)
T1 sequence (looked up): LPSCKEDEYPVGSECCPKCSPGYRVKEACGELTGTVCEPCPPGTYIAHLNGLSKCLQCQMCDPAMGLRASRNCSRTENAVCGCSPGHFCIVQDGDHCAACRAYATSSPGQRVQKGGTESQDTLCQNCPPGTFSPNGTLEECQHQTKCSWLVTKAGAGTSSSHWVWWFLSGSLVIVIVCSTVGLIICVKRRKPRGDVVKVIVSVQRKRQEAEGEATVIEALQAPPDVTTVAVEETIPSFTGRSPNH
Assay: cell-based or functional assay

Binder | increase in specific killing events (Caspase 3/7) in melanoma cells cocultured with autologous TILs, as compared to the isotype control, after nine hours [%]
B1 | 9
B2 | 19
B3 | 19

Target: T2, His-tagged human HVEM (human, UniProt Q92956 39-202)
T2 construct: extracellular domain; also called His-tagged HVEM (Acro Biosystems); HVEM extracellular domain peptide; not shown: His tag
T2 sequence (looked up): B19 chain
Assay: Biacore 8K multi-cycle kinetics, purified antibody captured on Protein A, His-tagged human HVEM as analyte, 25 C
Protocol: (§1) Multi-Cycle Kinetics: Multicycle kinetic analysis was performed on purified antibodies. Kinetic experiments were performed at 25° C. on a Biacore 8K. HBS-P+0.1% BSA (Cytiva, Marlborough, USA) was used as running buffer. Purified antibodies were diluted to 1.0 μg/mL in running buffer and at the start of each cycle, loaded onto Fc2, Fc3 and Fc4 of a Protein A sensor chip (Cytiva, Marlborough, USA). Antibodies were captured at a flow rate of 10 μl/min to give an immobilisation level (RL) of ˜ 100 RU. The surface was then allowed to stabilise. Multi-cycle kinetic data was obtained using His-tagged human HVEM as the analyte injected at a flow rate of 50 μl/min. A eight point, two-fold dilution range from 0.78 nM to 100 nM of antigen were prepared in running buffer. For each concentration, the association phases were monitored for 180 seconds and the dissociation phase was measured for 300 seconds. Regeneration of the sensor chip surface was conducted between cycles using two injections of 10 mM Glycine-HCl, pH 1.5.
(§2) First a multicycle kinetics Biacore affinity assay was performed to confirm the improved binding of the H4, T57A, T57G and T57N antibodies (FIG. 3A). Each purified antibody was captured to a Protein A sensor chip before increasing concentrations of antigen (hHVEM) were injected. The fold improvement in affinity was calculated by dividing the average KD of the parent antibody by the average KD for each variant antibody. […] A single-cycle kinetic Biacore assay was also performed with the H4 N55G, H4 N55S, H4 N55D, H4 N55Q, H4 N55E, and H4 T57E antibodies (FIG. 3B).

Binder | Kd [nM]
B4 | 4.65
B1 | 1.94
B2 | 7.27
B3 | 2.17

Target: T2, His-tagged human HVEM
Assay: Biacore T200 single-cycle kinetics, antibody supernatant captured on Protein A, His-tagged HVEM as analyte, 25 C
Protocol: (§3) Single Cycle Kinetics: To assess the binding of the affinity matured IgGs, single cycle kinetic analysis was performed on supernatants using a Biacore T200 (serial no. 1909913). Kinetic experiments were performed at 25° C. running Biacore T200 Control software V2.0.1 and Evaluation software V3.0 (Cytiva, Marlborough, USA). Antibodies were diluted in HBS-P+(Cytiva, Marlborough, USA) containing 1 mg/ml BSA to a final concentration of 1.0 μg/ml. Antibodies were loaded onto Fc2, Fc3 and Fc4 of the Protein A capture Sensor chip (Cytiva, Marlborough, USA). IgGs were captured at a flow rate of 10 μl/min to give an immobilisation level (RL) of ˜50 RU. The surface was then allowed to stabilize. Single cycle kinetics data was obtained using His-tagged HVEM (Acro Biosystems, Newark, USA) as the analyte at a flow rate of 40 μl/min. A two-fold dilution range from […] to 100 nM His-tagged antigen without regeneration between each concentration was used.
as §2

Binder | Kd [nM]
B5 | 13.1
B6 | 21
B7 | 23.4
B8 | 21.7
B9 | 14.3
B10 | 20.6

Target: T2, His-tagged human HVEM
Assay: Biacore KD to HVEM extracellular domain, IgG captured on Protein A, His-tagged HVEM as analyte; reference: Parental
Protocol: Affinity maturation: To improve binding affinity, the parental antibody was affinity matured using phage display. Heavy and/or light chain CDRs of variable domain regions were semi-randomized using oligonucleotide mutagenesis. Selections were performed using separate heavy and light chain phage libraries and decreasing concentrations of biotinylated His-tagged HVEM target to select the highest affinity binders from each library. Following four rounds of selections individual clones were screened as scFv supematants in a binding ELISA to identify lead candidates with signals greater than the parental scFv expressed in the same assay. Identified hits were converted into IgG and cloned into mammalian expression vectors. Plasmids encoding the affinity improved variants paired with the appropriate parental heavy or light chain, as well as the parental antibody, were transiently transfected small scale into HEK EBNA adherent cells (LGC Standards, Teddington, UK). At five days post-transfection, the supernatants were harvested, quantified by Octet (serial no. FB-30203) and analysed by Biacore single cycle kinetics.
as §3

Binder | Fold improvement vs parental (KD) [fold]
B4 | 9.57
B11 | 1.51
B12 | 3.14
B13 | 5.05
B5 | 4.29
B14 | 1.53
B6 | 2.67
B15 | 1
B1 | 23.5
B7 | 2.4
B8 | 2.59
B16 | 2.57
B17 | 1.3
B18 | 2.15
B9 | 3.93
B10 | 2.73
B2 | 6.24
B3 | 20.7

Target: T3, hLIGHT-His (human, UniProt O43557 59-240)
T3 construct: Named only as hLIGHT-His; also called recombinant hLIGHT; not shown: exact limits of the vendor construct
Assay: ELISA, plate coated with hHVEM, antibody 10 µg/ml present, hLIGHT-His 2.5 µg/ml, detection with anti-LIGHT

T3 sequence (O43557 59-240 limits assumed): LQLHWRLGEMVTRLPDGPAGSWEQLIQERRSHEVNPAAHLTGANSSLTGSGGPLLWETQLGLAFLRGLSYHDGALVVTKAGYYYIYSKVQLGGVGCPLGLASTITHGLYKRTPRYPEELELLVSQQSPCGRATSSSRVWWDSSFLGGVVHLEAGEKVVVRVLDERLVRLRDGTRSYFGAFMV

Binder | binding result
B19 | binds

Target: T2, His-tagged human HVEM
Assay: Biacore 8K multi-cycle kinetics, purified antibody captured on Protein A, His-tagged human HVEM as analyte; reference: Parental
Protocol: as §1, §2

Binder | Fold improvement (KD parent / KD variant) [fold]
B4 | 14
B1 | 33.6
B2 | 8.97
B3 | 30.1

Target: T2, His-tagged human HVEM
Assay: Biacore T200 single-cycle kinetics, antibody supernatant captured on Protein A, His-tagged HVEM as analyte; reference: Parental
Protocol: as §3, §2

Binder | Fold improvement (KD parent / KD variant) [fold]
B5 | 4.29
B6 | 2.67
B7 | 2.4
B8 | 2.59
B9 | 3.93
B10 | 2.73

Target: B19
Assay: blocking ELISA: antibody titrated on plate-bound hHVEM in the presence of hBTLA, bound hBTLA detected (OD); the IC50 column has no unit, µg/ml is the unit of the x axis

Binder | IC50 [µg/mL]
B3 | 0.53

Source: patent US20240067742A1 (4C BIOMED, published 2024)
